Source: patent US20210130436A1

Molecular target: PD-1 (PDCD1) (Homo sapiens (Human)) (UniProt Q15116)
Assay: cell-based or functional assay

PD-1 (PDCD1) (Homo sapiens (Human)), sequence (Q15116 21-288): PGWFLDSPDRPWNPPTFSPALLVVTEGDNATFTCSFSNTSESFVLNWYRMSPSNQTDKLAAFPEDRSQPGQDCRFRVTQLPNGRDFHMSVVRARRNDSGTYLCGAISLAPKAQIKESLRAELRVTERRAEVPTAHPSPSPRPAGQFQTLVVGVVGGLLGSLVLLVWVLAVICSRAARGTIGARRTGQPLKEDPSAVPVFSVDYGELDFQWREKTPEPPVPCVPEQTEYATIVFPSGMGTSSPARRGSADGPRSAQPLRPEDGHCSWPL

Row | Binder | IFN gamma levels pg/mL (MLR) [pg/mL]
1 | PD-L2 H15Q IgV-Fc (Fc fusion, not shown: a dimerising Fc or GST) LFTVTVPKELYIIEQGSNVTLECNFDTGSHVNLGAITASLQKVENDTSPHRERATLLEEQLPLGKASFHIPQVQVRDEGQYQCIIIYGVAWDYKYLTLKVKA | 1820
2 | PD-L2 G28V/Q72H/R76G/I86T IgV-Fc (Fc fusion, not shown: a dimerising Fc or GST) LFTVTVPKELYIIEHGSNVTLECNFDTVSHVNLGAITASLQKVENDTSPHRERATLLEEQLPLGKASFHIPHVQVGDEGQYQCIITYGVAWDYKYLTLKVKA | 1780
3 | PD-L2 H15Q/Q72H/Q74R/R76G/I86T IgV-Fc (Fc fusion, not shown: a dimerising Fc or GST) LFTVTVPKELYIIEQGSNVTLECNFDTGSHVNLGAITASLQKVENDTSPHRERATLLEEQLPLGKASFHIPHVRVGDEGQYQCIITYGVAWDYKYLTLKVKA | 934
4 | PD-L2 S67L/V89D IgV-Fc (Fc fusion, not shown: a dimerising Fc or GST) LFTVTVPKELYIIEHGSNVTLECNFDTGSHVNLGAITASLQKVENDTSPHRERATLLEEQLPLGKALFHIPQVQVRDEGQYQCIIIYGDAWDYKYLTLKVKA | 1230
5 | PD-L2 H15Q/Q82R/V89D IgV-Fc (Fc fusion, not shown: a dimerising Fc or GST) LFTVTVPKELYIIEQGSNVTLECNFDTGSHVNLGAITASLQKVENDTSPHRERATLLEEQLPLGKASFHIPQVQVRDEGQYRCIIIYGDAWDYKYLTLKVKA | 1080
6 | PD-L2 S67L/I86T IgV-Fc (Fc fusion, not shown: a dimerising Fc or GST) LFTVTVPKELYIIEHGSNVTLECNFDTGSHVNLGAITASLQKVENDTSPHRERATLLEEQLPLGKALFHIPQVQVRDEGQYQCIITYGVAWDYKYLTLKVKA | 1020
7 | PD-L2 I13V/H15Q/V31A/N45S/Q82R/V89D IgV-Fc (Fc fusion, not shown: a dimerising Fc or GST) LFTVTVPKELYIVEQGSNVTLECNFDTGSHANLGAITASLQKVESDTSPHRERATLLEEQLPLGKASFHIPQVQVRDEGQYRCIIIYGDAWDYKYLTLKVKA | 1720
8 | PD-L2 H15Q/T47A/H69L/Q82R/V89D IgV-Fc (Fc fusion, not shown: a dimerising Fc or GST) LFTVTVPKELYIIEQGSNVTLECNFDTGSHVNLGAITASLQKVENDASPHRERATLLEEQLPLGKASFLIPQVQVRDEGQYRCIIIYGDAWDYKYLTLKVKA | 1730
9 | PD-L2 I13V/H15Q/V89D IgV-Fc (Fc fusion, not shown: a dimerising Fc or GST) LFTVTVPKELYIVEQGSNVTLECNFDTGSHVNLGAITASLQKVENDTSPHRERATLLEEQLPLGKASFHIPQVQVRDEGQYQCIIIYGDAWDYKYLTLKVKA | 1120
10 | PD-L2 H15Q/T47A/S67L/Q82R/V89D IgV-Fc (Fc fusion, not shown: a dimerising Fc or GST) LFTVTVPKELYIIEQGSNVTLECNFDTGSHVNLGAITASLQKVENDASPHRERATLLEEQLPLGKALFHIPQVQVRDEGQYRCIIIYGDAWDYKYLTLKVKA | 1200
11 | PD-L2 H15Q/V31M/S67L/Q82R/V89D IgV-Fc (Fc fusion, not shown: a dimerising Fc or GST) LFTVTVPKELYIIEQGSNVTLECNFDTGSHMNLGAITASLQKVENDTSPHRERATLLEEQLPLGKALFHIPQVQVRDEGQYRCIIIYGDAWDYKYLTLKVKA | 1210
12 | PD-L2 I13V/H15Q/T47A/E58G/S67L/Q82R/V89D IgV-Fc (Fc fusion, not shown: a dimerising Fc or GST) LFTVTVPKELYIVEQGSNVTLECNFDTGSHVNLGAITASLQKVENDASPHRERATLLGEQLPLGKALFHIPQVQVRDEGQYRCIIIYGDAWDYKYLTLKVKA | 836
13 | PD-L2 H15Q/S39I/E44D/Q72H/V75G/R76G/Q82R/V89D IgV-Fc (Fc fusion, not shown: a dimerising Fc or GST) LFTVTVPKELYIIEQGSNVTLECNFDTGSHVNLGAITAILQKVDNDTSPHRERATLLEEQLPLGKASFHIPHVQGGDEGQYRCIIIYGDAWDYKYLTLKVKA | 941
14 | PD-L2 H15Q/S67L/Q72H/R76G/V89D IgV-Fc (Fc fusion, not shown: a dimerising Fc or GST) LFTVTVPKELYIIEQGSNVTLECNFDTGSHVNLGAITASLQKVENDTSPHRERATLLEEQLPLGKALFHIPHVQVGDEGQYQCIIIYGDAWDYKYLTLKVKA | 1060
15 | PD-L2 I13V/H15Q/S39I/E44D/S67L IgV-Fc (Fc fusion, not shown: a dimerising Fc or GST) LFTVTVPKELYIVEQGSNVTLECNFDTGSHVNLGAITAILQKVDNDTSPHRERATLLEEQLPLGKALFHIPQVQVRDEGQYQCIIIYGVAWDYKYLTLKVKA | 1260
16 | PD-L2 I13V/H15Q/T47A/Q72H/R76G/I86T IgV-Fc (Fc fusion, not shown: a dimerising Fc or GST) LFTVTVPKELYIVEQGSNVTLECNFDTGSHVNLGAITASLQKVENDASPHRERATLLEEQLPLGKASFHIPHVQVGDEGQYQCIITYGVAWDYKYLTLKVKA | 1090
17 | PD-L2 H15Q/S67L/I86T IgV-Fc (Fc fusion, not shown: a dimerising Fc or GST) LFTVTVPKELYIIEQGSNVTLECNFDTGSHVNLGAITASLQKVENDTSPHRERATLLEEQLPLGKALFHIPQVQVRDEGQYQCIITYGVAWDYKYLTLKVKA | 1030
18 | PD-L2 H15Q/T47A/S67L/R76G/Q82R/V89D IgV-Fc (Fc fusion, not shown: a dimerising Fc or GST) LFTVTVPKELYIIEQGSNVTLECNFDTGSHVNLGAITASLQKVENDASPHRERATLLEEQLPLGKALFHIPQVQVGDEGQYRCIIIYGDAWDYKYLTLKVKA | 1100
19 | PD-L2 E44D/V89D/W91R IgV-Fc (Fc fusion, not shown: a dimerising Fc or GST) LFTVTVPKELYIIEHGSNVTLECNFDTGSHVNLGAITASLQKVDNDTSPHRERATLLEEQLPLGKASFHIPQVQVRDEGQYQCIIIYGDARDYKYLTLKVKA | 1560

Row | Binder | IFN gamma levels pg/mL (MLR) [pg/mL]
20 | PD-L2 I13V/S39I/E44D/Q82R/V89D IgV-Fc (Fc fusion, not shown: a dimerising Fc or GST) LFTVTVPKELYIVEHGSNVTLECNFDTGSHVNLGAITAILQKVDNDTSPHRERATLLEEQLPLGKASFHIPQVQVRDEGQYRCIIIYGDAWDYKYLTLKVKA | 936
21 | PD-L2 I13V/H15Q/T47A/H69L/R76G/V89D IgV-Fc (Fc fusion, not shown: a dimerising Fc or GST) LFTVTVPKELYIVEQGSNVTLECNFDTGSHVNLGAITASLQKVENDASPHRERATLLEEQLPLGKASFLIPQVQVGDEGQYQCIIIYGDAWDYKYLTLKVKA | 1080
22 | PD-L2 I13V/S67L/V89D IgV-Fc (Fc fusion, not shown: a dimerising Fc or GST) LFTVTVPKELYIVEHGSNVTLECNFDTGSHVNLGAITASLQKVENDTSPHRERATLLEEQLPLGKALFHIPQVQVRDEGQYQCIIIYGDAWDYKYLTLKVKA | 868
23 | PD-L2 Q82R/V89D IgV-Fc (Fc fusion, not shown: a dimerising Fc or GST) LFTVTVPKELYIIEHGSNVTLECNFDTGSHVNLGAITASLQKVENDTSPHRERATLLEEQLPLGKASFHIPQVQVRDEGQYRCIIIYGDAWDYKYLTLKVKA | 1620
24 | PD-L2 V89D IgV-Fc (Fc fusion, not shown: a dimerising Fc or GST) LFTVTVPKELYIIEHGSNVTLECNFDTGSHVNLGAITASLQKVENDTSPHRERATLLEEQLPLGKASFHIPQVQVRDEGQYQCIIIYGDAWDYKYLTLKVKA | 1170
25 | PD-L2 I13V/H15Q/T47A/Q82R IgV-Fc (Fc fusion, not shown: a dimerising Fc or GST) LFTVTVPKELYIVEQGSNVTLECNFDTGSHVNLGAITASLQKVENDASPHRERATLLEEQLPLGKASFHIPQVQVRDEGQYRCIIIYGVAWDYKYLTLKVKA | 1700
26 | PD-L2 I13V/H15Q/T37A/E44D/S48C/S67L/Q82R/V89D IgV-Fc (Fc fusion, not shown: a dimerising Fc or GST) LFTVTVPKELYIVEQGSNVTLECNFDTGSHVNLGAIAASLQKVDNDTCPHRERATLLEEQLPLGKALFHIPQVQVRDEGQYRCIIIYGDAWDYKYLTLKVKA | 1750
27 | PD-L2 F2L/H15Q/D46E/T47A/Q72H/R76G/Q82R/V89D IgV-Fc (Fc fusion, not shown: a dimerising Fc or GST) LLTVTVPKELYIIEQGSNVTLECNFDTGSHVNLGAITASLQKVENEASPHRERATLLEEQLPLGKASFHIPHVQVGDEGQYRCIIIYGDAWDYKYLTLKVKA | 1170
28 | PD-L2 I13V/H15Q/Q72H/R76G/I86T IgV-Fc (Fc fusion, not shown: a dimerising Fc or GST) LFTVTVPKELYIVEQGSNVTLECNFDTGSHVNLGAITASLQKVENDTSPHRERATLLEEQLPLGKASFHIPHVQVGDEGQYQCIITYGVAWDYKYLTLKVKA | 1220
29 | PD-L2 H15Q/T47A/Q72H/R76G/I86T IgV-Fc (Fc fusion, not shown: a dimerising Fc or GST) LFTVTVPKELYIIEQGSNVTLECNFDTGSHVNLGAITASLQKVENDASPHRERATLLEEQLPLGKASFHIPHVQVGDEGQYQCIITYGVAWDYKYLTLKVKA | 1600
30 | PD-L2 H15Q/N24S/T47A/Q72H/R76G/V89D IgV-Fc (Fc fusion, not shown: a dimerising Fc or GST) LFTVTVPKELYIIEQGSNVTLECSFDTGSHVNLGAITASLQKVENDASPHRERATLLEEQLPLGKASFHIPHVQVGDEGQYQCIIIYGDAWDYKYLTLKVKA | 1090
31 | PD-L2 H15Q/T47A IgV-Fc (Fc fusion, not shown: a dimerising Fc or GST) LFTVTVPKELYIIEQGSNVTLECNFDTGSHVNLGAITASLQKVENDASPHRERATLLEEQLPLGKASFHIPQVQVRDEGQYQCIIIYGVAWDYKYLTLKVKA | 1640
32 | PD-L2 I13V/H15Q/T47A/R76G/V89D IgV-Fc (Fc fusion, not shown: a dimerising Fc or GST) LFTVTVPKELYIVEQGSNVTLECNFDTGSHVNLGAITASLQKVENDASPHRERATLLEEQLPLGKASFHIPQVQVGDEGQYQCIIIYGDAWDYKYLTLKVKA | 1250
33 | PD-L2 N32D/S67L/V89D IgV-Fc (Fc fusion, not shown: a dimerising Fc or GST) LFTVTVPKELYIIEHGSNVTLECNFDTGSHVDLGAITASLQKVENDTSPHRERATLLEEQLPLGKALFHIPQVQVRDEGQYQCIIIYGDAWDYKYLTLKVKA | 1190
34 | PD-L2 H15Q/S39I/S67L/V89D IgV-Fc (Fc fusion, not shown: a dimerising Fc or GST) LFTVTVPKELYIIEQGSNVTLECNFDTGSHVNLGAITAILQKVENDTSPHRERATLLEEQLPLGKALFHIPQVQVRDEGQYQCIIIYGDAWDYKYLTLKVKA | 1230
35 | PD-L2 I13V/H15Q/Q82R/V89D IgV-Fc (Fc fusion, not shown: a dimerising Fc or GST) LFTVTVPKELYIVEQGSNVTLECNFDTGSHVNLGAITASLQKVENDTSPHRERATLLEEQLPLGKASFHIPQVQVRDEGQYRCIIIYGDAWDYKYLTLKVKA | 1600
36 | PD-L2 I13V/H15Q/R76G/D77N/Q82R/V89D IgV-Fc (Fc fusion, not shown: a dimerising Fc or GST) LFTVTVPKELYIVEQGSNVTLECNFDTGSHVNLGAITASLQKVENDTSPHRERATLLEEQLPLGKASFHIPQVQVGNEGQYRCIIIYGDAWDYKYLTLKVKA | 1190
37 | PD-L2 H15Q/N18D/T47A/Q72H/V73A/R76G/I86T/V89D IgV-Fc (Fc fusion, not shown: a dimerising Fc or GST) LFTVTVPKELYIIEQGSDVTLECNFDTGSHVNLGAITASLQKVENDASPHRERATLLEEQLPLGKASFHIPHAQVGDEGQYQCIITYGDAWDYKYLTLKVKA | 1070
